Columns and labels:
[1] = biological target: WNV DIII fragment (residues 296-404) of the New York 1999 strain, expressed in E. coli and refolded (West Nile virus, New York 1999 strain) (UniProt Q9Q6P4); assay: SPR
[2] = biological target: WNV E ectodomain (residues 1-404) of the New York 1999 strain, expressed in E. coli and refolded (West Nile virus, New York 1999 strain) (UniProt Q9Q6P4); assay: SPR

| Substance | Kd [1] [nM] | Kd [2] [nM] |
| --- | --- | --- |
| mHu-E16 (mammalian CHO cell-produced humanized E16 monoclonal antibody) | 32 | 45 |
| pHu-E16 (plant-produced humanized E16 monoclonal antibody against West Nile virus) | 41 | 46 |
